Source: US20220249633A1

B1: … (SEQ ID NO: 249) (peptide)
peptide: RYHPTTCTI
B2: … (SEQ ID NO: 209) (peptide)
peptide: AFIETPIPLF
B3: … (SEQ ID NO: 200) (peptide)
peptide: VFIHHLPQF
B4: … (SEQ ID NO: 236) (peptide)
peptide: VYLPKIPSW
B5: … (SEQ ID NO: 219) (peptide)
peptide: SYLKAVFNL
B6: … (SEQ ID NO: 248) (peptide)
peptide: AFPTFSVQL
B7: … (SEQ ID NO: 213) (peptide)
peptide: SYAPPSEDLFL
B8: … (SEQ ID NO: 207) (peptide)
peptide: LYSDAFKFIVF
B9: … (SEQ ID NO: 253) (peptide)
peptide: IYGFFNENF
B10: … (SEQ ID NO: 243) (peptide)
peptide: SYLELANTL
B11: … (SEQ ID NO: 194) (peptide)
peptide: VYQSLSNSL
B12: … (SEQ ID NO: 241) (peptide)
peptide: SYVKVLHHL
B13: … (SEQ ID NO: 256) (peptide)
peptide: VFGKSAYLF
B14: … (SEQ ID NO: 205) (peptide)
peptide: VYPVVLNQI
B15: … (SEQ ID NO: 237) (peptide)
peptide: KYVGQLAVL
B16: … (SEQ ID NO: 244) (peptide)
peptide: VHFEDTGKTLLF
B17: … (SEQ ID NO: 254) (peptide)
peptide: KYLESSATF
B18: … (SEQ ID NO: 247) (peptide)
peptide: SFTKTSPNF
B19: … (SEQ ID NO: 255) (peptide)
peptide: VYQKIILKF
B20: … (SEQ ID NO: 179) (peptide)
peptide: TYIPVGLGRLL
B21: … (SEQ ID NO: 235) (peptide)
peptide: VYKDSIYYI
B22: … (SEQ ID NO: 232) (peptide)
peptide: YYLSDSPLL
B23: … (SEQ ID NO: 187) (peptide)
peptide: AYAANVHYL
B24: … (SEQ ID NO: 233) (peptide)
peptide: QYLTAAALHNL
B25: … (SEQ ID NO: 239) (peptide)
peptide: VYAIFRILL
B26: … (SEQ ID NO: 252) (peptide)
peptide: AFGQETNVPLNNF
B27: … (SEQ ID NO: 210) (peptide)
peptide: IYAGVGEFSF
B28: … (SEQ ID NO: 185) (peptide)
peptide: QYLVHVNDL
B29: … (SEQ ID NO: 246) (peptide)
peptide: KYLSVQLTL
B30: … (SEQ ID NO: 220) (peptide)
peptide: SYSEIKDFL
B31: … (SEQ ID NO: 229) (peptide)
peptide: IYQFVADSF
B32: … (SEQ ID NO: 199) (peptide)
peptide: SYLNHLNNL
B33: … (SEQ ID NO: 191) (peptide)
peptide: TYPDGTYTGRIF
B34: … (SEQ ID NO: 202) (peptide)
peptide: RYVEGIVSL
B35: … (SEQ ID NO: 225) (peptide)
peptide: TYTNTLERL
B36: … (SEQ ID NO: 193) (peptide)
peptide: LYLENNAQTQF
B37: … (SEQ ID NO: 242) (peptide)
peptide: VYGEPRELL
B38: … (SEQ ID NO: 201) (peptide)
peptide: GYNPNRVFF
B39: … (SEQ ID NO: 197) (peptide)
peptide: IFTDIFHYL
B40: … (SEQ ID NO: 182) (peptide)
peptide: AYAQLGYLLF
B41: … (SEQ ID NO: 230) (peptide)
peptide: TYGMVMVTF
B42: … (SEQ ID NO: 206) (peptide)
peptide: NYLDVATFL
B43: … (SEQ ID NO: 216) (peptide)
peptide: FYVNVKEQF
B44: … (SEQ ID NO: 211) (peptide)
peptide: VFKSEGAYF
B45: … (SEQ ID NO: 224) (peptide)
peptide: PYFFANQEF
B46: … (SEQ ID NO: 234) (peptide)
peptide: SYLPAIWLL
B47: … (SEQ ID NO: 198) (peptide)
peptide: DYVGFTLKI
B48: … (SEQ ID NO: 226) (peptide)
peptide: MYLKLVQLF
B49: … (SEQ ID NO: 178) (peptide)
peptide: NYSSAVQKF
B50: … (SEQ ID NO: 184) (peptide)
peptide: IYSVGAFENF
B51: … (SEQ ID NO: 208) (peptide)
peptide: TYLEKIDGF
B52: … (SEQ ID NO: 186) (peptide)
peptide: VFTTSSNIF
B53: … (SEQ ID NO: 196) (peptide)
peptide: GYIRGSWQF
B54: … (SEQ ID NO: 231) (peptide)
peptide: AFADVSVKF
B55: … (SEQ ID NO: 228) (peptide)
peptide: IYQYVADNF
B56: … (SEQ ID NO: 214) (peptide)
peptide: KYLMELTLI
B57: … (SEQ ID NO: 192) (peptide)
peptide: RYSTFSEIF
B58: … (SEQ ID NO: 217) (peptide)
peptide: IYISNSIYF
B59: … (SEQ ID NO: 240) (peptide)
peptide: YYFFVQEKI
B60: … (SEQ ID NO: 215) (peptide)
peptide: SYVASFFLL
B61: … (SEQ ID NO: 245) (peptide)
peptide: LYPQLFVVL
B62: … (SEQ ID NO: 181) (peptide)
peptide: VYPPYLNYL
B63: … (SEQ ID NO: 188) (peptide)
peptide: GYKTFFNEF
B64: … (SEQ ID NO: 218) (peptide)
peptide: LYSELNKWSF
B65: … (SEQ ID NO: 180) (peptide)
peptide: KYLQVVGMF
B66: … (SEQ ID NO: 221) (peptide)
peptide: KYIGNLDLL
B67: … (SEQ ID NO: 250) (peptide)
peptide: KYPDIASPTF
B68: … (SEQ ID NO: 212) (peptide)
peptide: SYAPPSEDLF
B69: … (SEQ ID NO: 223) (peptide)
peptide: TFITQSPLL
B70: … (SEQ ID NO: 190) (peptide)
peptide: LYSELTETL
B71: … (SEQ ID NO: 204) (peptide)
peptide: EYLSTCSKL
B72: … (SEQ ID NO: 195) (peptide)
peptide: AYIKGGWIL
B73: … (SEQ ID NO: 251) (peptide)
peptide: VYTKALSSL
B74: … (SEQ ID NO: 183) (peptide)
peptide: PYLQDVPRI
B75: … (SEQ ID NO: 227) (peptide)
peptide: IYRFITERF

Molecular target: HLA-A*24 (human)
Experiment: UV-exchange ELISA, exchange yield grade

Row | Binder | peptide exchange yield [%]
1 | B1 | > 75
2 | B2 | > 75
3 | B3 | 50 to 75
4 | B4 | 50 to 75
5 | B5 | 50 to 75
6 | B6 | > 75
7 | B7 | 20 to 49
8 | B8 | 50 to 75
9 | B9 | 50 to 75
10 | B10 | 50 to 75
11 | B11 | 50 to 75
12 | B12 | 50 to 75
13 | B13 | 50 to 75
14 | B14 | 50 to 75
15 | B15 | 50 to 75
16 | B16 | 50 to 75
17 | B17 | 50 to 75
18 | B18 | 50 to 75
19 | B19 | 50 to 75
20 | B20 | 50 to 75
21 | B21 | 50 to 75
22 | B22 | 50 to 75
23 | B23 | > 75
24 | B24 | 50 to 75
25 | B25 | 50 to 75

Row | Binder | peptide exchange yield [%]
26 | B26 | > 75
27 | B27 | > 75
28 | B28 | > 75
29 | B29 | 20 to 49
30 | B30 | > 75
31 | B31 | 50 to 75
32 | B32 | 50 to 75
33 | B33 | 50 to 75
34 | B34 | 50 to 75
35 | B35 | 50 to 75
36 | B36 | 50 to 75
37 | B37 | 50 to 75
38 | B38 | 50 to 75
39 | B39 | > 75
40 | B40 | > 75
41 | B41 | 50 to 75
42 | B42 | > 75
43 | B43 | 50 to 75
44 | B44 | > 75
45 | B45 | 50 to 75
46 | B46 | 50 to 75
47 | B47 | 20 to 49
48 | B48 | 20 to 49
49 | B49 | 50 to 75
50 | B50 | > 75

Row | Binder | peptide exchange yield [%]
51 | B51 | > 75
52 | B52 | > 75
53 | B53 | > 75
54 | B54 | > 75
55 | B55 | 50 to 75
56 | B56 | 50 to 75
57 | B57 | 50 to 75
58 | B58 | > 75
59 | B59 | 50 to 75
60 | B60 | 20 to 49
61 | B61 | 50 to 75
62 | B62 | 50 to 75
63 | B63 | 50 to 75
64 | B64 | 50 to 75
65 | B65 | 50 to 75
66 | B66 | > 75
67 | B67 | 20 to 49
68 | B68 | 20 to 49
69 | B69 | > 75
70 | B70 | 50 to 75
71 | B71 | 50 to 75
72 | B72 | 50 to 75
73 | B73 | 50 to 75
74 | B74 | 50 to 75
75 | B75 | 50 to 75
